assay: yeast display, Sf9 membrane polyspecificity reagent, FACS + sequencing; frameworks hold sequencing errors
How it was run: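 Using colony PCR, genes from sorted yeast display clones were amplified, then sequenced on MiSeq at 2 × 250 and filtered by CDR length. The clones had been stained with 10% biotinylated, detergent-solubilized Sf9 membrane reagent for 1 hour at 4 °C and sorted by FACS into low and high (top ~1%) gates on anti-HA and streptavidin fluorescence. Polyreactivity labels come from the gate of origin.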

| Sequence | polyreactivity (PSR sort gate) |
| --- | --- |
| QVQLVESGGGLVQAGGSLRLSCAASGRTFSAYAMGWNRQAPGKEREMVAAISSTGRTKYADSVKGRFTISRDNAKNSVYLQMNSLKPEDTAVYYCAARGYYVSPYTYGYWGQGTQVTVSS | high polyreactivity |
| QVQLVESGGGLVQAGGSLRLSCAASGRTFSAYAMGWYRQAPGKERELVAAISRSGGSTYYADSVKGRFTISRDNAKNTVYLQMNSLKPEDTAVYYCAAKGGSGLYYWGQGTQVTVSS | high polyreactivity |
| QVQLVESGGGLVQAGGSLRLSCAASGRTFSAYAMGWYRQAPGKERELVARITSVDSTNYADSVKRRFTISRDNAKNSVYLQINSLKPEDTAVYYCNATFGYPFVDYDDYWGQGTQVTVSS | low polyreactivity |
| QVQLVESGGGLVQAGGSLRLSCAASGRTFSDYAMGWYRQAPGKERELVAAITSSSGTTYYADSVKGRFTISRDNAKNTVYFQMNSLKPEDTAVYYCAAGHPYSLSERYNYWGQGTQVTVSS | low polyreactivity |
| QVQLVESGGGLVQAGGSLRLSCAASGRTFSFYAMGWYRQAPGNERELVASMSRSGASTYYADSVKGRFTISRDNAKNTVYLQMNSLKPEDTAVYYCAAEWGRRYIYYYWGQGTQVTVSS | high polyreactivity |
| QVQLVESGGGLVQAGGSLRLSCAASGRTFSGNTMGWYRQAPGKEREFVATISQSGTITSYADSVKGRFTISRDNAKNTVYLQMNSLKPEDTAVYYCAARAVYYSSRGWITRFDYWGQGTQVTVSS | high polyreactivity |
| QVQLVESGGGLVQAGGSLRLSCAASGRTFSGNTMVWYRQAPGKERELVAAITGRGGSTYYADSVKGRFTISRDNAKNTVYLQMNSKKPEDTAVYYCAALRYTFAGRFDYWGQGTQVTVSS | high polyreactivity |
| QVQLVESGGGLVQAGGSLRLSCAASGRTFSGYAMGWYRQAPGKERELVAAIRLSGGSTYYADSVKGRFTISRDNAKNTVYLQMNSLKPEVTAVYYCARYHGFGYDYWGQGTQGTVSS | low polyreactivity |
| QVQLVESGGGLVQAGGSLRLSCAASGRTFSGYAMGWYRQAPGKERELVAAITGRGGSTYYADSVKGRFTISRDNAKNTVYLQMNSLKPEDTAVYYCAAYGIWYRVDYWGQGTQVTVSS | high polyreactivity |
| QVQLVESGGGLVQAGGSLRLSCAASGRTFSGYAMGWYRQAPGKERELVAGITWNGGRTYYADSVKGRFTISRDNAKNTVYLQMNILKPDDTAVYYCYKLGAVYPKYGYWGQGTQVTVSS | high polyreactivity |
| QVQLVESGGGLVQAGGSLRLSCAASGRTFSGYAMGWYRQAPGTERELVAAIDRGDGTNYADSVKGRFTISRDNAKNTVYLQMNSLKPEDTAVYYCAADYSYGSTSHTYTGFDYWGQGTQVTVSS | low polyreactivity |
| QVQLVESGGGLVQAGGSLRLSCAASGRTFSGYPMGWYRPAPGKERELVAAISWSGGSTYYADSVKGRFTISRDNAKNTVYLQMNSLKPEDTAVYYCAAYTYSFRANHDYWGQGTQVTVSS | high polyreactivity |
| QVQLVESGGGLVQAGGSLRLSCAASGRTFSHYAMGWYRQAPGKERELVAGISSGSRTNYADSVKGRFTISRDNAKNTVYLQMNSLKPEDTAVYYCAARTKYLKGGYWGQGTQVTVSS | high polyreactivity |
| QVQLVESGGGLVQAGGSLRLSCAASGRTFSIYAMGLYRQAPGKERELVAAISNGGRTKYADSVKGRFTISRDNAKNTVYLQMNSLKPEDTAVYYCAAETWYVAYGYWGQGTQVTVSS | high polyreactivity |
| QVQLVESGGGLVQAGGSLRLSCAASGRTFSKYAMGWDRPAPGKERELVAGISRSGGSTYYADSVKGRFTISRDNAKNTVYLQMNSLKPEDTAVYYCAKRSVGGTGYYWGQGTQVTVSS | high polyreactivity |
| QVQLVESGGGLVQAGGSLRLSCAASGRTFSKYAMGWYRQAPGKERELVAAIRWSGGSTYYADSVKGRFTISRDNAKNTVYLQMNSLKPEDTAVYYSAKRSRGLKFDYWGLGTQVTVSS | high polyreactivity |
| QVQLVESGGGLVQAGGSLRLSCAASGRTFSNYAMGWYRQAPGKERELVAAISQRGGSTYYADSVKGRFTISRDNAKNTVYLLMNSLKPEDTAVYYCNARQTTATGGTGNYWGQGTQVTVSS | high polyreactivity |
| QVQLVESGGGLVQAGGSLRLSCAASGRTFSNYAMGWYRQAPGKERELVAAISQRGGSTYYADSVKGRFTISRDNAKNTVYLQMNSLKPEDTAVYYCNARQTTATVGTGNYWGQGTQVTVSS | high polyreactivity |
| QVQLVESGGGLVQAGGSLRLSCAASGRTFSPYMGWSRQAPGKERELVAAISKSGGRTYYADSVKWSFTISRDNAKNTVYLQMNSLQPEDTAVYYCATSGNNYYYALYGYWVQGTQVTVSS | low polyreactivity |
| QVQLVESGGGLVQAGGSLRLSCAASGRTFSPYPMGWYRQAPGKERELGAAINWTGGSTYYADSVKGRFTISRDNAKNTVYLQMNSLKPEVTAVYYCNADWWYGYDYWGQGTQVTVSS | low polyreactivity |
| QVQLVESGGGLVQAGGSLRLSCAASGRTFSRYAMGWYRQAPGKERELVAAISWSGGTTHYADSVKGRFTISRDNAKNTVYLQMNSLKPEDTAVYYCNKLRQIEFWGQGTQVTVSS | high polyreactivity |
| QVQLVESGGGLVQAGGSLRLSCAASGRTFSTYAMGWYRQAPGKERELVAAIDSGGGSTYYADSVKGRFTISRDNAKNTVYLQMNSLKPEDTAVYYCARDHYAPLARLRYDYWGQGTQVTVSS | low polyreactivity |

| Sequence | polyreactivity (PSR sort gate) |
| --- | --- |
| QVQLVESGGGLVQAGGSLRLSCAASGRTFSTYAMGWYRQAPGKERELVAAITRRGGSTYYADSVKGRFTISRDNAKNTVYLQMNSLKPEDTAVYYCARENPGDSYYDYWGQGTQVTVSS | low polyreactivity |
| QVQLVESGGGLVQAGGSLRLSCAASGRTFSTYVMGWYRQAPGKEREFVAAISTGGGSTYYADSVKGRFTISRDNAKNTVYLQMNSLKPEDTAVYYCAARLKWGWPTYDYWGQGTQVTVSS | high polyreactivity |
| QVQLVESGGGLVQAGGSLRLSCAASGRTFSVNAMGWYREAPGKEREFVAGISYSGNTYYADSVKGRVTISRDNAKKTAYLQMNSLKPEDTAVYYCAARRGYNDGYWGQGTQVTVSS | high polyreactivity |
| QVQLVESGGGLVQAGGSLRLSCAASGRTFSVNAMGWYRQAPGKERELVAAISWDGGSTYYADSVKGRFTISRDTAKNTVYLQMNSLKPEDTAVYYCNKDLYYAYDYWGQGTQVTVSS | low polyreactivity |
| QVQLVESGGGLVQAGGSLRLSCAASGRTFSVNAMGWYRQAPGKERELVATITWSGSSTSYADSVKGRFTISRDNAKNSVDLQMNSLTPEDTAVYYCAADLWTLIYLTDTYGDWGQGTQVTVSS | low polyreactivity |
| QVQLVESGGGLVQAGGSLRLSCAASGRTFSVNDMGWYRQAPGKERELVAAISFSGGSTYYADSVKGRFTISRDNAKNTVYLQMNSLKPEDTAVYYCAAEAYPVRRLNLPGYDYWGQGTQVTVSS | high polyreactivity |
| QVQLVESGGGLVQAGGSLRLSCAASGRTFSVYAMGWYRQAPGKERELVAVIRGRGGRTYYADSVKGRFTISRDNAKNTVYLQMNSLKPEDTAVYYCNAVGQIVYGKQYDYWGQGTQVTVSS | high polyreactivity |
| QVQLVESGGGLVQAGGSLRLSCAASGRTFSVYTMGWYRQAPGKERELVAVISSGGGTDYADSVKGRFTISRDNAKNTVYLQMNSLKPEDTAVYYCAAELRYYLYDVVYIVTYDYWGQGTQVTVSS | low polyreactivity |
| QVQLVESGGGLVQAGGSLRLSCAASGRTFSWNTMGWYRQAPGKEMELVATITWSGTSTYYADSVKGRFTISRDNAKNTDYLQMNSLKPEDTAVYYCAKRRLFPYTISRYDYWGQGTQVTVSS | high polyreactivity |
| QVQLVESGGGLVQAGGSLRLSCAASGRTFSWYAMGWYRPAPGQERELVAAITYSGGNTYYADSVKGRFTISRDNAKNTVYLQMNSLKPEDTAVYYCAKYGVTGQGSWSQRMGYWGQGTQVTVSS | high polyreactivity |
| QVQLVESGGGLVQAGGSLRLSCAASGRTFSWYAMGWYRQAPGKERELVAAITRDGGNTYYADSVKGRFTISRDNAKNTVYLQMNSLKPEDTAVYYCAAAPTTGKRPGYYYWGQGTQVTVSS | high polyreactivity |
| QVQLVESGGGLVQAGGSLRLSCAASGRTFSYYAKGWYRQAPGKESELVSAIRVSGGITYYADSVKGRFTISRDNAKNTVYLQMNTLKPEDTAVYYCNAGVDFIGGRYLTYVYWGQGTQVTVSW | low polyreactivity |
| QVQLVESGGGLVQAGGSLRLSCAASGRTFSYYAMGWYIQAPGKERELVAAINSSGGRTYYADSVKGRFTISRDNAKNTVYLQMNSLKPEDTAVYYCAARSYSTSSHHGYWGQGTQVTVSS | high polyreactivity |
| QVQLVESGGGLVQAGGSLRLSCAASGRTFSYYAMGWYRQAHGKERELVAAITSSGGRTTYADSVKGRFTISRDNAKNTVYLQMNSLKPEDTAVYYCNVVRWTLKYGYWGQGTQVTVSS | high polyreactivity |
| QVQLVESGGGLVQAGGSLRLSCAASGRTFSYYAMGWYRQAPGKEREFVAAISSTGTSTYYADSVKGRFTISRDNAKNTVYLQMNSLKPEDTAVYYCNARVATYRLHSKFYYWGQGTQVTVSS | high polyreactivity |
| QVQLVESGGGLVQAGGSLRLSCAASGRTFSYYAMGWYRQAPGKERELVAAISYSGGRTYYADSVKGRFTISRDNAKNTVYIQMNSLKPEDTAVYYCAPVKSRPQYGYGYWVQGTQVTVSS | high polyreactivity |
| QVQLVESGGGLVQAGGSLRLSCAASGRTFSYYAMGWYRQAPGKERELVAAITSGGGRTYYADSVKGRFTISRDNAKNTVYLQMNSLKPEDTAVYYCNALSTLYNGYDYWGQGTQVTVSS | high polyreactivity |
| QVQLVESGGGLVQAGGSLRLSCAASGRTFSYYAMRWYRQAPGKERELVAAITSGGSTYYADSVKGRFTISRDNAKNTVYLQMNSLKPEDTAVYYCAKYQSYGPVPFGRGYGHYYWGQGTQVTVSS | high polyreactivity |
| QVQLVESGGGLVQAGGSLRLSCAASGRTFSYYARGWYRQAPGKEREFVAAISSSGGSTNYADSVKGRFTISRDNAKNTVYLQMNSLKPEDTAVYYCNAGSGYTGVYLWYYWRYDYWGQGTQVTVSS | low polyreactivity |
| QVQLVESGGGLVQAGGSLRLSCAASGRTFSYYTMGWYRQAPGKERELVARISNRGTNTYYADSVKGRFTISRDNAKNTVYLQMNSLKPEDTAVYYCAATQPYWWAYRYDYWGQGTQVTVSS | low polyreactivity |
| QVQLVESGGGLVQAGGSLRLSCAASGRTFSYYTMGWYRQATGKERELVARISNRGTNTYYADSVKGRFTISRDNAKITVYLPMNSLKQEDTAVYYCDKFYYTSIVGYDSWGQGTQVTVSS | low polyreactivity |
